From the supplement of paper PMC9112550, “Optimization of the antimicrobial peptide Bac7 by deep mutational scanning” (BMC Biology, 2022)

Tested on: Escherichia coli TOP10
Experiment: shrunken log2 fold change of peptide-encoding DNA abundance (4.5 h post-induction vs induction); higher = less antimicrobial activity (less host growth inhibition)
Conditions: time post-induction: 4.5 h; library: site-saturation at positions 5, 18, 19, 20
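Note: peptides expressed intracellularly from a pBAD plasmid library in pooled LB shake-flask culture, induced with 0.3% L-arabinose, DNA abundance read by NGS, three biological replicates, DESeq2 with apeglm shrinkage.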

Sequence	shrunken log2 fold change
RRIRWRPPRLPRPRPRPPDNPRP	0.318
RRIRIRPPRLPRPRPRPAFEPRP	-0.117
RRIRPRPPRLPRPRPRPKWIPRP	-0.465
RRIRMRPPRLPRPRPRPDPVPRP	-0.0377
RRIRDRPPRLPRPRPRPIPNPRP	0.0139
RRIRIRPPRLPRPRPRPIQWPRP	0.0166
RRIRVRPPRLPRPRPRPCSKPRP	-0.0775
RRIRQRPPRLPRPRPRPKSYPRP	-0.0861
RRIRERPPRLPRPRPRPVEWPRP	-0.00804
RRIRPRPPRLPRPRPRPFMKPRP	-0.915
RRIRNRPPRLPRPRPRPGNDPRP	-0.0364
RRIRPRPPRLPRPRPRPHGAPRP	0.641
RRIRLRPPRLPRPRPRPAEFPRP	-0.011
RRIRIRPPRLPRPRPRPRWTPRP	0.0809
RRIRGRPPRLPRPRPRPFFRPRP	0.211
RRIRRRPPRLPRPRPRPAWGPRP	0.508
RRIRNRPPRLPRPRPRPMPFPRP	0.00489
RRIRMRPPRLPRPRPRPKMTPRP	2.7
RRIRTRPPRLPRPRPRPLARPRP	-0.0885
RRIRLRPPRLPRPRPRPVADPRP	0.0131
RRIRSRPPRLPRPRPRPNCCPRP	-0.105
RRIRKRPPRLPRPRPRPCARPRP	-0.00716
RRIRWRPPRLPRPRPRPEGNPRP	0.29
RRIRPRPPRLPRPRPRPLEAPRP	0.249
RRIRQRPPRLPRPRPRPQINPRP	-0.285

Sequence	shrunken log2 fold change
RRIRSRPPRLPRPRPRPMEKPRP	-0.0205
RRIRVRPPRLPRPRPRPSMVPRP	-0.475
RRIRPRPPRLPRPRPRPKMMPRP	-0.032
RRIRTRPPRLPRPRPRPRICPRP	-0.201
RRIRDRPPRLPRPRPRPTDTPRP	0.146
RRIRCRPPRLPRPRPRPCFDPRP	-0.526
RRIRVRPPRLPRPRPRPNMNPRP	-0.745
RRIRIRPPRLPRPRPRPTNYPRP	-0.745
RRIRMRPPRLPRPRPRPFETPRP	-0.00884
RRIRVRPPRLPRPRPRPEDDPRP	-0.17
RRIRTRPPRLPRPRPRPRFPPRP	0.115
RRIRARPPRLPRPRPRPWICPRP	-0.0278
RRIRRRPPRLPRPRPRPTKEPRP	-0.0782
RRIRHRPPRLPRPRPRPNCGPRP	0.00696
RRIRYRPPRLPRPRPRPCSIPRP	-0.0204
RRIRPRPPRLPRPRPRPKTNPRP	0.0176
RRIRERPPRLPRPRPRPFWSPRP	-0.109
RRIRGRPPRLPRPRPRPPEIPRP	0.851
RRIRVRPPRLPRPRPRPNLWPRP	-0.0401
RRIRTRPPRLPRPRPRPKLFPRP	-0.0805
RRIRNRPPRLPRPRPRPPSMPRP	-0.0213
RRIRGRPPRLPRPRPRPKECPRP	0.0235
RRIRERPPRLPRPRPRPGLVPRP	-0.061
RRIRMRPPRLPRPRPRPPHDPRP	1.47
RRIRLRPPRLPRPRPRPKRCPRP	-0.0395

Sequence	shrunken log2 fold change
RRIRCRPPRLPRPRPRPEVPPRP	-0.119
RRIRDRPPRLPRPRPRPQNNPRP	-0.653
RRIRHRPPRLPRPRPRPRCDPRP	0.128
RRIRDRPPRLPRPRPRPTNQPRP	-0.00895
RRIRERPPRLPRPRPRPAMRPRP	0.59
RRIRIRPPRLPRPRPRPWYYPRP	-0.00149
RRIRTRPPRLPRPRPRPAVYPRP	-0.181
RRIRDRPPRLPRPRPRPRILPRP	-0.116
RRIRMRPPRLPRPRPRPENHPRP	0.0929
RRIRIRPPRLPRPRPRPYCKPRP	-0.592
RRIRQRPPRLPRPRPRPAHKPRP	-0.0849
RRIRVRPPRLPRPRPRPFLKPRP	-0.602
RRIRVRPPRLPRPRPRPGTCPRP	0.0803
RRIRFRPPRLPRPRPRPMWKPRP	-0.0148
RRIRSRPPRLPRPRPRPWRHPRP	-0.106
RRIRGRPPRLPRPRPRPKLKPRP	0.862
RRIRCRPPRLPRPRPRPYTCPRP	-0.794
RRIRIRPPRLPRPRPRPDCHPRP	-0.154
RRIRCRPPRLPRPRPRPGTDPRP	-0.00121
RRIRFRPPRLPRPRPRPFSWPRP	-0.00262
RRIRMRPPRLPRPRPRPMGAPRP	1.18
RRIRFRPPRLPRPRPRPPCMPRP	-0.125
RRIRIRPPRLPRPRPRPVGQPRP	-0.195
RRIRQRPPRLPRPRPRPCAQPRP	0.308
RRIRLRPPRLPRPRPRPNPGPRP	-0.213

Sequence	shrunken log2 fold change
RRIRPRPPRLPRPRPRPNINPRP	-0.795
RRIRDRPPRLPRPRPRPCWYPRP	-0.369
RRIRCRPPRLPRPRPRPVCFPRP	-0.141
RRIRPRPPRLPRPRPRPWTNPRP	-0.0167
RRIRTRPPRLPRPRPRPGTIPRP	-0.0982
RRIRERPPRLPRPRPRPCAEPRP	-0.0868
RRIRFRPPRLPRPRPRPDLHPRP	-0.274
RRIRGRPPRLPRPRPRPHKVPRP	0.184
RRIRHRPPRLPRPRPRPDWCPRP	-0.00101
RRIRARPPRLPRPRPRPTTNPRP	0.389
RRIRLRPPRLPRPRPRPLFHPRP	-0.233
RRIRKRPPRLPRPRPRPRMSPRP	-0.216
RRIRSRPPRLPRPRPRPMPFPRP	-0.0591
RRIRIRPPRLPRPRPRPTQPPRP	-0.0427
RRIRNRPPRLPRPRPRPNWKPRP	-0.0062
RRIRFRPPRLPRPRPRPKNVPRP	0.04
RRIRLRPPRLPRPRPRPWKYPRP	-0.0875
RRIRWRPPRLPRPRPRPNAHPRP	0.0415
RRIRPRPPRLPRPRPRPWHGPRP	0.0257
RRIRDRPPRLPRPRPRPAHSPRP	-0.143
RRIRLRPPRLPRPRPRPHHSPRP	-0.506
RRIRVRPPRLPRPRPRPFNYPRP	-0.975
RRIRERPPRLPRPRPRPVFDPRP	-0.461
RRIRPRPPRLPRPRPRPASTPRP	0.11
RRIRERPPRLPRPRPRPLQQPRP	0.0643

Sequence	shrunken log2 fold change
RRIRCRPPRLPRPRPRPYLFPRP	-1.19
RRIRMRPPRLPRPRPRPLGTPRP	1.31
RRIRSRPPRLPRPRPRPHVPPRP	-0.149
RRIRMRPPRLPRPRPRPKCPPRP	0.108
RRIRHRPPRLPRPRPRPTGTPRP	-0.0618
RRIRQRPPRLPRPRPRPMACPRP	-0.159
RRIRARPPRLPRPRPRPHHSPRP	-0.404
RRIRTRPPRLPRPRPRPSIFPRP	-0.122
RRIRGRPPRLPRPRPRPHPNPRP	0.547
RRIRGRPPRLPRPRPRPSPSPRP	0.649
RRIRFRPPRLPRPRPRPPHHPRP	-0.0595
RRIRDRPPRLPRPRPRPDFEPRP	1.35
RRIRKRPPRLPRPRPRPTLVPRP	0.528
RRIRFRPPRLPRPRPRPMHSPRP	-0.263
RRIRIRPPRLPRPRPRPESPPRP	-0.135
RRIRGRPPRLPRPRPRPECIPRP	1.67
RRIRFRPPRLPRPRPRPQIKPRP	-0.291
RRIRQRPPRLPRPRPRPGAPPRP	0.307
RRIRERPPRLPRPRPRPYYGPRP	-0.127
RRIRLRPPRLPRPRPRPVCFPRP	-0.059
RRIRLRPPRLPRPRPRPQPTPRP	0.0811
RRIRERPPRLPRPRPRPKTQPRP	-0.102
RRIRCRPPRLPRPRPRPKVTPRP	-0.455
RRIRYRPPRLPRPRPRPNCIPRP	-0.197
RRIRCRPPRLPRPRPRPLSCPRP	-0.184
